Experimental data: the supplement of paper PMC12042874
± gives the uncertainty stated by the source.

Assay: amyloid nucleation score (Sup35N fusion, yeast selection) (log enrichment); library NNK2; higher = more nucleation; inactive = no reads after selection
Outline: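 The nucleation score is the DiMSum log enrichment of output over input reads, centred on the mode score of non-aggregating sequences. Only sequences with 100 or more input reads were scored, using Illumina sequencing of input and output plasmid inserts. Psi-negative yeast expressing Sup35N fused to peptides of 20 random codons were induced 24 hours with 100 μM copper sulfate and grown 7 days at 30°C on medium lacking adenine and uracil.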
RVVLCVNLSPTSFVWSRIKE gave an amyloid nucleation score of 3.45 ± 0.15.
RVVRLAFNPRPSDAWILYR showed an amyloid nucleation score of 0.325 ± 0.34.
RVYLFFYAYHHVICANSSYK showed an amyloid nucleation score of -1.11 ± 0.56.
RWCGIGRLGVSNGIVPCWEM showed an amyloid nucleation score of 0.647 ± 0.17.
For RWEDRPSVTRRSGVRNGFSG, the amyloid nucleation score was “inactive”.
In the case of RWIVGQRRKIESWWQMVPIY, the amyloid nucleation score is reported as 0.81 ± 0.4.
Work on RWIVRDSFESWFMVLD yielded an amyloid nucleation score of -0.267 ± 0.35.
In the case of RYENPLYVCDWGFGASLFRP, the amyloid nucleation score is reported as 0.237 ± 0.22.
RYIGMLRFVVCDYGLMIFWS gave an amyloid nucleation score of -0.394 ± 1.1.
For RYIVILSFVRGSWLYFLTRT, the amyloid nucleation score was -0.543 ± 0.5.
For RYKSFMVQQSIDNRVLVGVC, the amyloid nucleation score was 0.241 ± 0.8.
With RYLSLVFVYIVGVLYSSCDV the amyloid nucleation score was 0.383 ± 0.14.
For RYLVVKEQDFPDEYAPY, the amyloid nucleation score was -0.271 ± 0.55.
For RYMRFYRLAGPAVLRFHLR, the amyloid nucleation score was “inactive”.
RYNDAFSVCRMDEITAWIWC showed an amyloid nucleation score of 2.67 ± 0.085.
For RYWWRVRIYFVCCVSSLDWV, the amyloid nucleation score was 7.09 ± 0.077.
SAFYSDAL gave an amyloid nucleation score of 1.08 ± 0.54.
SALHCISLDVHRIFGSKNAR gave an amyloid nucleation score of 1.36 ± 0.46.
SALIF gave an amyloid nucleation score of 0.115 ± 1.
In the case of SALSGRYAKTLRNGHGLYQE, the amyloid nucleation score is reported as “inactive”.
With SARAICMAVLESSESDHNGV the amyloid nucleation score was -0.299 ± 0.36.
In the case of SASDTRGCCQHIPVSLGILT, the amyloid nucleation score is reported as 0.119 ± 0.74.
With SATFWLFVGVENVADMSKVG the amyloid nucleation score was 0.261 ± 0.4.
With SATRDYHRLWCVVRLLLNAA the amyloid nucleation score was 0.342 ± 0.46.
With SAVHENVIGVFFGVLVYSNA the amyloid nucleation score was 2.42 ± 0.1.
With SCAGSWNNKGGSKLQWDFLV the amyloid nucleation score was -1.82 ± 0.75.
With SCCRGEF the amyloid nucleation score was -0.235 ± 0.61.
SCCYVLKRDFKLMNNVPSGR gave an amyloid nucleation score of -0.033 ± 0.2.
In the case of SCDIRRSLVSRAQICVCIVM, the amyloid nucleation score is reported as 7.534 ± 0.071.
With SCFLSMYVISV the amyloid nucleation score was “inactive”.
With SCFRC the amyloid nucleation score was 9.804 ± 0.047.
SCGRMMTVVMIWGNWRSWSS showed an amyloid nucleation score of -0.439 ± 0.76.
In the case of SCLEMYSHRVPWSFACDDYN, the amyloid nucleation score is reported as “inactive”.
For SCLTNGY, the amyloid nucleation score was -0.154 ± 0.38.
In the case of SCPGLGNRIPDTVKYT, the amyloid nucleation score is reported as 0.969 ± 0.22.
With SCPMTSYGE the amyloid nucleation score was 0.319 ± 0.8.
For SCRVRFNRSCAPGNSQIGMS, the amyloid nucleation score was 8.674 ± 0.058.
SCSMLVRDDIIIEPDCLLGV gave an amyloid nucleation score of 0.45 ± 0.74.
With SCVLRP the amyloid nucleation score was 0.064 ± 0.33.
SCYFLFGHDG gave an amyloid nucleation score of -0.517 ± 0.49.
Work on SCYIDRTRYWDGYFLLCSMD yielded an amyloid nucleation score of 0.949 ± 0.74.
Substance SCYNFVWYTCGLYMWLNCLL has an amyloid nucleation score of -0.793 ± 0.32.
SDGEKFG gave an amyloid nucleation score of -0.256 ± 1.1.
SDHFKWV gave an amyloid nucleation score of -1.05 ± 1.
In the case of SDLLFVLASLSCLQWNKDIA, the amyloid nucleation score is reported as -0.457 ± 0.25.
Substance SDLTIVVSMLGFIPCSCHAF has an amyloid nucleation score of 6.328 ± 0.05.
SDRFMIVVDWVILVVLCMT gave an amyloid nucleation score of -0.611 ± 0.39.
Substance SDRMLCEGNYCWCVSENVLL has an amyloid nucleation score of 6.12 ± 0.061.
Work on SDSFKDPTWREDNRGW yielded an amyloid nucleation score of 2.54 ± 0.085.
With SDSKG the amyloid nucleation score was 0.113 ± 1.1.
With SDTVYLIFFSLAYNYVKRVT the amyloid nucleation score was -1.74 ± 0.41.
Work on SDWFW yielded an amyloid nucleation score of -0.664 ± 0.5.
For SELKMWYTDMVSTSKLDCIL, the amyloid nucleation score was -0.125 ± 0.46.
With SELLRTLGALSFYMYSFIKH the amyloid nucleation score was -1.98 ± 0.54.
With SERRGIIGSGLRDGRVLFTT the amyloid nucleation score was “inactive”.
For SESGR, the amyloid nucleation score was 1.74 ± 0.21.
Substance SESMFLVKDSLTWTDVFLIG has an amyloid nucleation score of -1.07 ± 1.1.
Substance SFCDLWLLAQDHAKLLGFIA has an amyloid nucleation score of -0.499 ± 0.55.
With SFDFHNGGDIEYLV the amyloid nucleation score was “inactive”.
In the case of SFDSVELARGTASCRVAYFV, the amyloid nucleation score is reported as 0.731 ± 0.35.
Work on SFGENLVYCMRSIVTSPYRL yielded an amyloid nucleation score of -0.364 ± 0.24.
Work on SFGGARVSLLCCFPSTSIAS yielded an amyloid nucleation score of 9.374 ± 0.036.
Substance SFGTFSCLYSVYNI has an amyloid nucleation score of 2.84 ± 0.086.
For SFILD, the amyloid nucleation score was “inactive”.
For SFITCRFNRDCFLLQFSWYN, the amyloid nucleation score was “inactive”.
Work on SFIWSLMSLIEFPVLYKSVV yielded an amyloid nucleation score of 0.067 ± 0.32.
Work on SFKICKLMNSNRFFVGICCT yielded an amyloid nucleation score of 0.057 ± 1.1.
SFKYCMMISGGF gave an amyloid nucleation score of 4.503 ± 0.041.
SFLLRWSRFVYICYSICCMI gave an amyloid nucleation score of -1.02 ± 0.55.
SFLVISWRADRFAA showed an amyloid nucleation score of 5.124 ± 0.042.
